# According to US20190185537A1 (AstraZeneca / MedImmune, published 2019):
# Numbered stars: 1 amine (or outer) side, 2 acyl side, 3 side chain; on linkers, the order of the positions; unused ones are H or OH. Side chains are listed from the residue outwards. Ends that are not written are not given here. * marks the point of attachment. γGlu = O=C(O)[C@H](CCC(=O)[*:2])N[*:1]; Palmitoyl = CCCCCCCCCCCCCCCC(=O)*
# T1: human glucose-dependent insulinotropic peptide (gastric inhibitory polypeptide) receptor (human) (UniProt P48546)
# T1 sequence (looked up): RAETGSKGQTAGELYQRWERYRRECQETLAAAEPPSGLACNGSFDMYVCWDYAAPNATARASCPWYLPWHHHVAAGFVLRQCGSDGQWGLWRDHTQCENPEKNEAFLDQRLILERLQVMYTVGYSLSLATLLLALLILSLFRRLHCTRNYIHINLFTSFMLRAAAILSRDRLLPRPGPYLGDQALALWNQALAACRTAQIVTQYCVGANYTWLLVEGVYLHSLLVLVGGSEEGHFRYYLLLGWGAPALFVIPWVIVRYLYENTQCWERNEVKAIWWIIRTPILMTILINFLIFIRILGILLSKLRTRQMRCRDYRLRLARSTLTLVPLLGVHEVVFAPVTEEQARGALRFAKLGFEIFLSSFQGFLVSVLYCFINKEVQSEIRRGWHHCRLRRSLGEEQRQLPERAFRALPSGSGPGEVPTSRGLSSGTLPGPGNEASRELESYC
# Columns and labels:
# Assay in all cases: cell-based or functional assay
# [1] = molecular target: T1, human glucose-dependent insulinotropic peptide (gastric inhibitory polypeptide) receptor (human)
# human glucagon receptor = human glucagon receptor (human, UniProt P47871 26-477)
# Sequence of human glucagon receptor (P47871 26-477): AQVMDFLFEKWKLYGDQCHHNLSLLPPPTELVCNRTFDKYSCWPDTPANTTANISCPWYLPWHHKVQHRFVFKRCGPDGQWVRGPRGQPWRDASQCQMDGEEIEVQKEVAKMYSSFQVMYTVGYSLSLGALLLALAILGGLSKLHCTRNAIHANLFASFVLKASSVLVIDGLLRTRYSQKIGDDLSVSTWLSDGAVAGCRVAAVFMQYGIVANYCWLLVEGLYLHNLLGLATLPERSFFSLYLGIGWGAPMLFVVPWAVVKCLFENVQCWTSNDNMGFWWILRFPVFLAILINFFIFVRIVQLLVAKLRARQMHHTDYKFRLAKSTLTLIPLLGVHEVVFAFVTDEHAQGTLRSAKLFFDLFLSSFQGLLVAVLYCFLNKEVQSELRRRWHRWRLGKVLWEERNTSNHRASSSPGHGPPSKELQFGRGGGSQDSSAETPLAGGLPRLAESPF
# human GLP-1 receptor = human GLP-1 receptor (human, UniProt P43220 24-463)
# Sequence of human GLP-1 receptor (P43220 24-463): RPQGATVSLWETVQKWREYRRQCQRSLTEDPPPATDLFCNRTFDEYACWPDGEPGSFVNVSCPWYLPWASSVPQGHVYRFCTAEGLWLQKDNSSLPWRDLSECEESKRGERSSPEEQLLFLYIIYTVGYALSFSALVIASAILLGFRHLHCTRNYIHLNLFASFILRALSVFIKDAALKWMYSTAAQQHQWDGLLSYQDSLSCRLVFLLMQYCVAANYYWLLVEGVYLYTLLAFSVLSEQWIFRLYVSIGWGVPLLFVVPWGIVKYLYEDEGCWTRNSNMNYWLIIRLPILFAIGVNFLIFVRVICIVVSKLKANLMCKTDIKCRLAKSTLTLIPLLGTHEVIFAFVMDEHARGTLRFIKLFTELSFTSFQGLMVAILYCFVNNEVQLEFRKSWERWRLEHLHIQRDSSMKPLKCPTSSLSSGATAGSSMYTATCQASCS
Binder,cAMP EC50 (assay 1) [1],cAMP EC50 (assay 1) (human glucagon receptor),cAMP EC50 (assay 1) (human GLP-1 receptor)
HSQGTFTSDK([γGlu-Palmitoyl])SKYLDSRRAQDFVQWLVAGG-NH2 (N-terminus assumed; SMILES CCCCCCCCCCCCCCCC(=O)N[C@@H](CCC(=O)NCCCC[C@H](NC(=O)[C@H](CC(=O)O)NC(=O)[C@H](CO)NC(=O)[C@@H](NC(=O)[C@H](Cc1ccccc1)NC(=O)[C@@H](NC(=O)CNC(=O)[C@H](CCC(N)=O)NC(=O)[C@H](CO)NC(=O)[C@@H](N)Cc1c[nH]cn1)[C@@H](C)O)[C@@H](C)O)C(=O)N[C@@H](CO)C(=O)N[C@@H](CCCCN)C(=O)N[C@@H](Cc1ccc(O)cc1)C(=O)N[C@@H](CC(C)C)C(=O)N[C@@H](CC(=O)O)C(=O)N[C@@H](CO)C(=O)N[C@@H](CCCNC(=N)N)C(=O)N[C@@H](CCCNC(=N)N)C(=O)N[C@@H](C)C(=O)N[C@@H](CCC(N)=O)C(=O)N[C@@H](CC(=O)O)C(=O)N[C@@H](Cc1ccccc1)C(=O)N[C@H](C(=O)N[C@@H](CCC(N)=O)C(=O)N[C@@H](Cc1c[nH]c2ccccc12)C(=O)N[C@@H](CC(C)C)C(=O)N[C@H](C(=O)N[C@@H](C)C(=O)NCC(=O)NCC(N)=O)C(C)C)C(C)C)C(=O)O) [g715],0.998 nM,0.00253 nM,0.0204 nM
HSQGTFTSDYK([γGlu-Palmitoyl])KYLDSRRAQDFVQWLVAGG-NH2 (N-terminus assumed; SMILES CCCCCCCCCCCCCCCC(=O)N[C@@H](CCC(=O)NCCCC[C@H](NC(=O)[C@H](Cc1ccc(O)cc1)NC(=O)[C@H](CC(=O)O)NC(=O)[C@H](CO)NC(=O)[C@@H](NC(=O)[C@H](Cc1ccccc1)NC(=O)[C@@H](NC(=O)CNC(=O)[C@H](CCC(N)=O)NC(=O)[C@H](CO)NC(=O)[C@@H](N)Cc1c[nH]cn1)[C@@H](C)O)[C@@H](C)O)C(=O)N[C@@H](CCCCN)C(=O)N[C@@H](Cc1ccc(O)cc1)C(=O)N[C@@H](CC(C)C)C(=O)N[C@@H](CC(=O)O)C(=O)N[C@@H](CO)C(=O)N[C@@H](CCCNC(=N)N)C(=O)N[C@@H](CCCNC(=N)N)C(=O)N[C@@H](C)C(=O)N[C@@H](CCC(N)=O)C(=O)N[C@@H](CC(=O)O)C(=O)N[C@@H](Cc1ccccc1)C(=O)N[C@H](C(=O)N[C@@H](CCC(N)=O)C(=O)N[C@@H](Cc1c[nH]c2ccccc12)C(=O)N[C@@H](CC(C)C)C(=O)N[C@H](C(=O)N[C@@H](C)C(=O)NCC(=O)NCC(N)=O)C(C)C)C(C)C)C(=O)O) [g716],11.8 nM,2.46 nM,12.9 nM
HSQGTFTSDYSK([γGlu-Palmitoyl])YLDSERARDFVAWLVAGG-NH2 (N-terminus assumed; SMILES CCCCCCCCCCCCCCCC(=O)N[C@@H](CCC(=O)NCCCC[C@H](NC(=O)[C@H](CO)NC(=O)[C@H](Cc1ccc(O)cc1)NC(=O)[C@H](CC(=O)O)NC(=O)[C@H](CO)NC(=O)[C@@H](NC(=O)[C@H](Cc1ccccc1)NC(=O)[C@@H](NC(=O)CNC(=O)[C@H](CCC(N)=O)NC(=O)[C@H](CO)NC(=O)[C@@H](N)Cc1c[nH]cn1)[C@@H](C)O)[C@@H](C)O)C(=O)N[C@@H](Cc1ccc(O)cc1)C(=O)N[C@@H](CC(C)C)C(=O)N[C@@H](CC(=O)O)C(=O)N[C@@H](CO)C(=O)N[C@@H](CCC(=O)O)C(=O)N[C@@H](CCCNC(=N)N)C(=O)N[C@@H](C)C(=O)N[C@@H](CCCNC(=N)N)C(=O)N[C@@H](CC(=O)O)C(=O)N[C@@H](Cc1ccccc1)C(=O)N[C@H](C(=O)N[C@@H](C)C(=O)N[C@@H](Cc1c[nH]c2ccccc12)C(=O)N[C@@H](CC(C)C)C(=O)N[C@H](C(=O)N[C@@H](C)C(=O)NCC(=O)NCC(N)=O)C(C)C)C(C)C)C(=O)O) [g728],395 nM,2.44 nM,0.169 nM
HSQGTFTSDYSKK([γGlu-Palmitoyl])LDSERAQDFVQWLVAGG-NH2 (N-terminus assumed; SMILES CCCCCCCCCCCCCCCC(=O)N[C@@H](CCC(=O)NCCCC[C@H](NC(=O)[C@H](CCCCN)NC(=O)[C@H](CO)NC(=O)[C@H](Cc1ccc(O)cc1)NC(=O)[C@H](CC(=O)O)NC(=O)[C@H](CO)NC(=O)[C@@H](NC(=O)[C@H](Cc1ccccc1)NC(=O)[C@@H](NC(=O)CNC(=O)[C@H](CCC(N)=O)NC(=O)[C@H](CO)NC(=O)[C@@H](N)Cc1c[nH]cn1)[C@@H](C)O)[C@@H](C)O)C(=O)N[C@@H](CC(C)C)C(=O)N[C@@H](CC(=O)O)C(=O)N[C@@H](CO)C(=O)N[C@@H](CCC(=O)O)C(=O)N[C@@H](CCCNC(=N)N)C(=O)N[C@@H](C)C(=O)N[C@@H](CCC(N)=O)C(=O)N[C@@H](CC(=O)O)C(=O)N[C@@H](Cc1ccccc1)C(=O)N[C@H](C(=O)N[C@@H](CCC(N)=O)C(=O)N[C@@H](Cc1c[nH]c2ccccc12)C(=O)N[C@@H](CC(C)C)C(=O)N[C@H](C(=O)N[C@@H](C)C(=O)NCC(=O)NCC(N)=O)C(C)C)C(C)C)C(=O)O) [g729],209 nM,0.0319 nM,0.0729 nM

# Now from value to binder:
cAMP EC50 (assay 1) [1],cAMP EC50 (assay 1) (human glucagon receptor),cAMP EC50 (assay 1) (human GLP-1 receptor),Binder
91.2 nM,1.81 nM,0.0964 nM,HSQGTFTSDYSEK([γGlu-Palmitoyl])LDSERARDFVAWLVAGG-NH2 (N-terminus assumed; SMILES CCCCCCCCCCCCCCCC(=O)N[C@@H](CCC(=O)NCCCC[C@H](NC(=O)[C@H](CCC(=O)O)NC(=O)[C@H](CO)NC(=O)[C@H](Cc1ccc(O)cc1)NC(=O)[C@H](CC(=O)O)NC(=O)[C@H](CO)NC(=O)[C@@H](NC(=O)[C@H](Cc1ccccc1)NC(=O)[C@@H](NC(=O)CNC(=O)[C@H](CCC(N)=O)NC(=O)[C@H](CO)NC(=O)[C@@H](N)Cc1c[nH]cn1)[C@@H](C)O)[C@@H](C)O)C(=O)N[C@@H](CC(C)C)C(=O)N[C@@H](CC(=O)O)C(=O)N[C@@H](CO)C(=O)N[C@@H](CCC(=O)O)C(=O)N[C@@H](CCCNC(=N)N)C(=O)N[C@@H](C)C(=O)N[C@@H](CCCNC(=N)N)C(=O)N[C@@H](CC(=O)O)C(=O)N[C@@H](Cc1ccccc1)C(=O)N[C@H](C(=O)N[C@@H](C)C(=O)N[C@@H](Cc1c[nH]c2ccccc12)C(=O)N[C@@H](CC(C)C)C(=O)N[C@H](C(=O)N[C@@H](C)C(=O)NCC(=O)NCC(N)=O)C(C)C)C(C)C)C(=O)O) [g802]
71.1 nM,0.0117 nM,0.0339 nM,HSQGTFTSDYSRK([γGlu-Palmitoyl])LDSERARDFVAWLVAGG-NH2 (N-terminus assumed; SMILES CCCCCCCCCCCCCCCC(=O)N[C@@H](CCC(=O)NCCCC[C@H](NC(=O)[C@H](CCCNC(=N)N)NC(=O)[C@H](CO)NC(=O)[C@H](Cc1ccc(O)cc1)NC(=O)[C@H](CC(=O)O)NC(=O)[C@H](CO)NC(=O)[C@@H](NC(=O)[C@H](Cc1ccccc1)NC(=O)[C@@H](NC(=O)CNC(=O)[C@H](CCC(N)=O)NC(=O)[C@H](CO)NC(=O)[C@@H](N)Cc1c[nH]cn1)[C@@H](C)O)[C@@H](C)O)C(=O)N[C@@H](CC(C)C)C(=O)N[C@@H](CC(=O)O)C(=O)N[C@@H](CO)C(=O)N[C@@H](CCC(=O)O)C(=O)N[C@@H](CCCNC(=N)N)C(=O)N[C@@H](C)C(=O)N[C@@H](CCCNC(=N)N)C(=O)N[C@@H](CC(=O)O)C(=O)N[C@@H](Cc1ccccc1)C(=O)N[C@H](C(=O)N[C@@H](C)C(=O)N[C@@H](Cc1c[nH]c2ccccc12)C(=O)N[C@@H](CC(C)C)C(=O)N[C@H](C(=O)N[C@@H](C)C(=O)NCC(=O)NCC(N)=O)C(C)C)C(C)C)C(=O)O) [g820]
88.3 nM,0.00831 nM,0.0512 nM,HSQGTFTSDYSRK([γGlu-Palmitoyl])LDSERARDFVAWLVAGG-OH (N-terminus assumed; SMILES CCCCCCCCCCCCCCCC(=O)N[C@@H](CCC(=O)NCCCC[C@H](NC(=O)[C@H](CCCNC(=N)N)NC(=O)[C@H](CO)NC(=O)[C@H](Cc1ccc(O)cc1)NC(=O)[C@H](CC(=O)O)NC(=O)[C@H](CO)NC(=O)[C@@H](NC(=O)[C@H](Cc1ccccc1)NC(=O)[C@@H](NC(=O)CNC(=O)[C@H](CCC(N)=O)NC(=O)[C@H](CO)NC(=O)[C@@H](N)Cc1c[nH]cn1)[C@@H](C)O)[C@@H](C)O)C(=O)N[C@@H](CC(C)C)C(=O)N[C@@H](CC(=O)O)C(=O)N[C@@H](CO)C(=O)N[C@@H](CCC(=O)O)C(=O)N[C@@H](CCCNC(=N)N)C(=O)N[C@@H](C)C(=O)N[C@@H](CCCNC(=N)N)C(=O)N[C@@H](CC(=O)O)C(=O)N[C@@H](Cc1ccccc1)C(=O)N[C@H](C(=O)N[C@@H](C)C(=O)N[C@@H](Cc1c[nH]c2ccccc12)C(=O)N[C@@H](CC(C)C)C(=O)N[C@H](C(=O)N[C@@H](C)C(=O)NCC(=O)NCC(=O)O)C(C)C)C(C)C)C(=O)O) [g842]
